Assay results taken from patent US9688764B2, “Methods of treating breast cancer by administering anti-human prolactin receptor (PRLR) antibodies” (REGENERON PHARMACEUTICALS, INC., priority 2013, dated 2017).

T1: PRLR-expressing cells (T47D) (Homo sapiens, UniProt P16471)
T1 construct: a native PRLR expressing cell line (T47D); endogenous in cells; host or cells: T47D
T1 sequence (P16471 25-622): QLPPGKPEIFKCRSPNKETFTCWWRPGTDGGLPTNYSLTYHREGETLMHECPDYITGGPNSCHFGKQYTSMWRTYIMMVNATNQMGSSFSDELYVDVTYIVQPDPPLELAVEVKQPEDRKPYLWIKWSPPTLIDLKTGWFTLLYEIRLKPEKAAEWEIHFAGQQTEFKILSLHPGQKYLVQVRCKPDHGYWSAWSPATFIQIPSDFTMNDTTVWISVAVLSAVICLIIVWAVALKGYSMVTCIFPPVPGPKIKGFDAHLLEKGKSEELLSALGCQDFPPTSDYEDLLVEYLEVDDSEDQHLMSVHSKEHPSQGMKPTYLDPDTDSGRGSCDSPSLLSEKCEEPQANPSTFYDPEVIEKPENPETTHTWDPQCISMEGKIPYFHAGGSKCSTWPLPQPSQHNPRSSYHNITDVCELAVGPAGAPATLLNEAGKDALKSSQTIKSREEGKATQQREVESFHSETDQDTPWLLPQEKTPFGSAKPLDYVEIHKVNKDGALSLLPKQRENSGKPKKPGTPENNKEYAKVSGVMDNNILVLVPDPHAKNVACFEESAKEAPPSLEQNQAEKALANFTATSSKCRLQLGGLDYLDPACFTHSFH

B1: H1H6801P: anti-PRLR antibody, human IgG1 Fc; HCVR/LCVR SEQ ID NOs 210/218 (antibody, V domains shown)
VH: QVQLQQSGPGLVKPSQTLSLTCVISGDSVSSNTAWNWVRQSPSRGLEWLGRTYYRSKWYNDYAVSVKSRITINPDTSKNQFSLLMNSVTPEDTAVYYCARVVRGLNYFDYWGQGTLVTVSS
VL: DIVMTQSPDSLAVSLGERATINCKSSQSVLYNSNNKNYLAWYQQKPGQPPKLLIYWSSSRESGVPDRFSGSGSGTDFTLTISGLQAEDVAIYYCQQYSTIPYTFGQGTKLEIK
modifications: human IgG1 Fc
B2: H1H6800P: anti-PRLR antibody, human IgG1 Fc; HCVR/LCVR SEQ ID NOs 194/202 (antibody, V domains shown)
VH: EVQLVESGGGLVQPGRSLRLSCAASGFTFDGYAMHWVRQGPGKGLEWVSGISWYSDTLGYADSVKGRFTISRDNAKNSLYLQMNSLRTEDTAFYYCAKISSSGWAFDYWGQGTLVTVSS
VL: EIVLTQSPGTLSLSPGERATLSCRASHSVSSAYLAWYQQKPGQTPRLLIYGTSSRATGIPDRFSGSGSGTDFTLTISRLEPEDFAVYYCQQYGSSPLFTFGPGTKVDIK
modifications: human IgG1 Fc
B3: H1H6797P: anti-PRLR antibody, human IgG1 Fc; HCVR/LCVR SEQ ID NOs 178/186 (antibody, V domains shown)
VH: EVQLVESGGGLVQPGGSLRLSCIVSGFTFSGSWMSWVRQLPGKGLEWVANIKEDGSDSYYVDSVEGRFTISRDNAKSSLYLQMNSLRVDDTAVYFCARARTVPLHYWGQGTLVTVSS
VL: DIQMTQSPSTLSASVGDRVTITCRASQSINIWLAWYQQKPGKAPKLLIYRASYLESGVPSSFAGGGSGTEFTLTISSLQPDDFGTYYCQHYNSYPFTFGQGTKLEIK
modifications: human IgG1 Fc
B4: H1H6803P: anti-PRLR antibody, human IgG1 Fc; HCVR/LCVR SEQ ID NOs 226/234 (antibody, V domains shown)
VH: EVQLVESGGGVVRPGGSLRLSCAASGFKFDDYGMTWVRHVPGKGLEWVSGINWNGGRTGYTDSVKGRFTISRDNAKNSLYLQMNSLRAEDTALYHCAGARRDAFDIWGQGTMVTVSS
VL: DIQMTQSPSSLSASIGDRVTITCRASQNIIKYLNWYQQNAGKAPKLLIYTASSLQSGVPSRFSGSGSGTDFTLTISSLQPEDFATYYCQQSSSSPYTFGQGTKLEIK
modifications: human IgG1 Fc
B5: H1H6795P: anti-PRLR antibody, human IgG1 Fc; HCVR/LCVR SEQ ID NOs 162/170 (antibody, V domains shown)
VH: QVQLVQSGAEVKKPGASVKVSCKASGYTFGTSGITWVRQAPGQGLEWMGWSSAYNGKTDYAQKFQDRVTMTTDTSTTTGYMEMRSLTSDDTAVYYCTTVVRRPFDFWGQGTLVTVSS
VL: DIQMTQSPSSLSASVGDRVTITCRASQDINNFLAWFQQKPGKAPKSLIYAASSLQSGVPSKFSGGGSGTDFALTISSLQPEDFATYYCQQYSSYPITFGQGTRLEIK
modifications: human IgG1 Fc

Experiments:
[1] = molecular target: T1, PRLR-expressing cells (T47D); assay: Antibody binding and internalization by PRLR-expressing cells (imaging); assay type: cell-based; details: [mAb] (0.67 nM); for % Internalization relative to Control I: alexa488 intensity in intracellular vesicles, 1 h at 37° C.; for % Total Binding relative to Control I: whole cell alexa488 intensity at 37° C.
Experimental: In this Example, the internalization of anti-PRLR antibodies by PRLR-expressing cells (T47D) was assessed. Briefly, 20,000 T47D cells were seeded in collagen coated 96 well plates. […] Cells were then incubated with alexa488 conjugated anti-hFc Fab secondary antibodies for 30 minutes on ice followed by two additional PBS washes. Antibodies were allowed to internalize for 1 h at 37° C. in internalization buffer (PBS+2% FBS) or remained at 4° C. Cells were fixed in 4% formaldehyde, nuclei were stained with DRAQ5 (Cell signaling), and images were acquired on the ImageXpress micro XL (Molecular Devices). Whole cell alexa488 intensity at 37° C. (Binding) and the alexa488 intensity in the intracellular vesicles at 37° C. (Internalization) were determined via Columbus image analysis software (PerkinElmer).

[2] = test system: HEK293/hPRLR/STAT5-Luc cells (human PRLR); assay: STAT5-Luc luciferase reporter assay, blocking of PRL-mediated receptor activation; assay type: cell-based; details: for IC50: 5 nM constant PRL, 6 hr at 37° C.; for Percent Blocking at 100 nM Antibody: 5 nM PRL
From the text: The ability of anti-PRLR antibodies to block prolactin (PRL)-mediated receptor activation was examined in a luciferase-based reporter assay. The endocrine hormone PRL binds to the extracellular domain of its cognate receptor PRLR, triggering rapid homodimerization and activating several downstream signaling cascades.
In this example, an engineered cell line was used to determine the ability of anti-PRLR antibodies to block ligand activation of the PRLR receptor. Briefly, HEK293/hPRLR/STAT5-Luc cell lines with stable incorporation of a human PRLR expression cassette and the STAT5-dependent luciferase reporter were generated via sequential rounds of Lipofectamine® 2000-mediated transfection (LifeTechnologies, Carlsbad, Calif.). Cells were selected for at least two weeks in the presence of 500 μg/mL G418 (hPRLR) and 100 μg/mL hygromycin B (STAT5-Luc). The STAT5-Luc assay utilized 2×10^5 HEK293/hPRLR/STAT5-Luc cells seeded in complete growth medium on PDL-coated 96 well plates grown overnight at 37° C., 5% CO2. To generate antibody inhibition curves, cells were incubated (6 hr at 37° C.) with serially diluted anti-human PRLR antibodies (100 nM to 24 pM) in the presence of 5 nM constant PRL before recording signal. PRL dose response curves were generated by the addition of serially diluted PRL (100 nM to 24 pM) to cells and recording signal after a 6 hr (37° C.) incubation in the absence of antibodies. The ability of the antibodies to activate PRLR in the absence of ligand was also assessed.
Luciferase activity was measured with ONE-GLO™ reagent (Promega, Madison, Wis.). Relative light units (RLUs) were measured on a Victor luminometer (Perkin Elmer, Shelton, Conn.). EC50/IC50 values were determined from a four-parameter logistic equation over an 8-point response curve using GraphPad Prism. Percent blocking and percent activation are reported for the highest antibody dose.

HEK293/mfPRLR = assay: FACS cell surface binding; design: species or system macaca fascicularis
Experimental: The ability of anti-PRLR antibodies to selectively bind PRLR expressing cell lines was next determined. Human, monkey macaca fascicularis, and mouse PRLR constructs with an HA tag were stably introduced into HEK293 cells via Lipofectamine 2000-mediated transfection methodology. Transfectants (HEK293/hPRLR, HEK293/mfPRLR and HEK293/mPRLR) were selected for at least 2 weeks in complete growth media plus G418.
Cell surface expression of PRLR on 293/hPRLR cells was assessed via FACS analysis. Briefly, 1×10^5 cells were incubated with 10 μg/ml of Control antibody I, or an isotype control for 30 min on ice in antibody dilution buffer. Following two washes with antibody dilution buffer, cells were incubated with 10 μg/ml of PE conjugated anti-human secondary antibodies for 30 min on ice. Following two additional washes, samples were run on a Hypercyt® cytometer and analyzed in FORECYT™ (IntelliCyt, Albuquerque, N. Mex.). The mean fluorescence intensities (MFI) were expressed as fold change above isotype control levels (background). FACS binding confirmed that Control I selectively bound to 293/hPRLR expressing cells with MFIs that were 30 fold above background (isotype ctrl) levels and less than 2 fold binding on parental cells.
Next, the anti-PRLR antibodies of the present invention were tested via FACS for selective binding to the engineered overexpressing PRLR HEK293 cell lines, as well as to non-expressing HEK293 cells and a native PRLR expressing cell line (T47D).

Chain of HEK293/mfPRLR (as listed by the source): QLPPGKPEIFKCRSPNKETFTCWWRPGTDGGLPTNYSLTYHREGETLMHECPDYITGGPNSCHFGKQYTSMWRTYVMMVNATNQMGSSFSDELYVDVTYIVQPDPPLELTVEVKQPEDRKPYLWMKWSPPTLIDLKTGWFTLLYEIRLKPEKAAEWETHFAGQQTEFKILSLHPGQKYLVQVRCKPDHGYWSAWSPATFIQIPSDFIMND

Molecule | % Internalization relative to Control I [1] | % Total Binding relative to Control I [1] | IC50 [2] | Percent Blocking at 100 nM Antibody [2] | FACS Cell Binding (Fold Above Background) (HEK293/mfPRLR)
B1 | 148.9% | 155.7% | 0.14 nM | 100% | 88 Fold Above Background
B2 | 198.3% | 186.8% | 0.355 nM | 100% | 29 Fold Above Background
B3 | 145.2% | 151.2% | – | 0% | 25 Fold Above Background
B4 | 190.5% | 205.5% | 0.627 nM | 100% | 28 Fold Above Background
B5 | 150.7% | 123.4% | – | 0% | 22 Fold Above Background
